Source: patent publication US11466260B2, “Thermostable haloarchaeal inorganic pyrophosphatase” (UNIVERSITY OF FLORIDA RESEARCH FOUNDATION, INCORPORATED, priority 2015, dated 2022)
Entries after “also recorded” stand apart in the source; their conditions may differ. Read-outs that look alike come from different tables or passages of the source.

Assays:
[1] = PPi assay: HvPPA-mediated hydrolysis of PPi to Pi (malachite green); type: biochemical, Haloferax volcanii; conditions: for Temp., optimum: 20 mM Tris-Cl pH 8, 3 M NaCl; for Cation-dependence: EDTA-treated enzyme, 20 mM Tris-Cl pH 8, 2 M NaCl
Procedure: FIGS. 4A-4D. Effect of pH, temperature, salt and divalent cations on Haloferax volcanii inorganic phyrophosphatase (HvPPA) activity. A-C) HvPPA was equilibrated for 10 min at the pH, temperature, and NaCl concentrations indicated prior to the addition of PPi substrate (100 μM). MgCl2 (10 mM) was included in the activity assays. For pH optimum, assays were supplemented with 3 M NaCl and included 20 mM buffers of sodium acetate at pH 4-5, MES at pH 6-6.5, Tris-Cl at pH 7-9 and CAPS at pH 10. For temperature optimum assays, reactions were in 20 mM Tris-Cl pH 8 supplemented with 3 M NaCl. For salt optimum, HvPPA was diluted from 20 mM Tris-Cl pH 8 containing 3 m NaCl into the same buffer with NaCl concentrations as indicated. D) To test the influence of cations, HvPPA was dialyzed sequentially against 500 ml of buffer (20 mM Tris-Cl pH 8, 2 M NaCl and 1 μM EDTA) (4 h at 4° C.) and the same buffer with EDTA omitted (4 h at 4° C.). Reactions for panel D contained HvPPA (0.93 μg), 20 mM Tris-Cl pH 8, 2 M NaCl and divalent metal at the concentration indicated. Metals used were: CaCl2.2H2O, ZnCl2, CoCl2.6H2O, MnCl2.4H2O, NiCl2.6H2O and MgCl2.6H2O. Reactions were monitored for 10 min at RT unless otherwise indicated.
FIGS. 6A-6D. Effect of salt, solvent and temperature on Haloferax volcanii inorganic phyrophosphatase (HvPPA). A) HvPPA thermostability. HvPPA was incubated at 42° C. and 65° C. as indicated with enzyme at 0.093 mg/ml of buffer (20 mM Tris-Cl pH 8, 2.5 mM MgCl2 and 3 M NaCl). HvPPA was diluted to 0.28 μg per 100 μl buffer (with MgCl2 increased to 10 mM) and assayed by addition of 1 mM PPi substrate (10 min, RT). Activity is % relative to samples incubated on ice. B) HvPPA stability in 50% (v/v) solvent. HvPPA was incubated for 2 h (on ice) at 0.47 mg/ml buffer (20 mM Tris-Cl pH 8 and 2 M NaCl) supplemented with solvent as indicated. HvPPA was diluted to 2.4 μg per 100 μl buffer (20 mM Tris-Cl pH 8, 2.5 mM MgCl2 and 2 M NaCl) and assayed by addition of 50 μM PPi substrate (10 min, RT). Activity is % relative to samples incubated with no solvent. C) HvPPA activity in 25% (v/v) solvent. Reactions were 500 μl with 2.8 μg HvPPA, 1.5 M NaCl, 1.5 mM PPi, 10 mM MgCl2. Reaction occurred at 10 minutes at RT. D) HvPPA stability in salt. HvPPA was incubated for 2 h (on ice) at 0.3 mg per ml of buffer (20 mM Tris-Cl pH 8) supplemented with NaCl at the concentrations indicated. HvPPA was diluted to 0.87 μg per 100 μl reaction buffer as in FIG. 6B. Activity is % relative to samples incubated in buffer supplemented with 3M NaCl.
PPA activity monitored in Tris-salt buffer at 37° C. and pH 8.5 with 0.1 mM PPi for 10 min. U, units defined as μmol product/min. SD, standard deviation of three experiments.
HvPPA-mediated hydrolysis of PPi to Pi was determined spectrophotometrically. Reagents were in nanopure water (Barnstead/Thermolyne Nanopure lab water system). Sodium pyrophosphate tetrabasic decahydrate (Sigma Aldrich) was used as a substrate. For kinetic measurements, reaction mixtures (500 μl total) contained 0.5-1 μg HvPPA and 1 mM PPi in high-salt buffer (3 M NaCl and 20 mM Tris-HCl, pH 8.5). Reactions were incubated at 42° C. for 1-3 min. Orthophosphate levels were determined by malachite green assay. Briefly, 2.5 ml of 14% (w/v) (NH4)2MoO4 and 0.2 ml of 11% (v/v) TWEEN 20 ® (Polyoxyethylene sorbitan monolaurate) were added into a 10-ml color reagent I (containing 1.67 ml conc. sulfuric acid, 8.33 ml nanopure H2O, and 12.22 mg malachite green). In triplicate, 50 μl of the color reagent was mixed with 200 μl of the reaction mixture and incubated at room temperature for 10 min. The formation of (MG^+)(H2PMo12O40) (where MG^+ represents ionized malachite green) was monitored at A630. A less sensitive malachite green assay was also used in which reaction aliquots (50 μl) were mixed with 250 μl color reagent II and 10 μl 1.5% (v/v) TWEEN 20 ® (Polyoxyethylene sorbitan monolaurate) in triplicate; product formation was immediately monitored at A650. […]

[2] = as above; type: biochemical, Haloferax volcanii; conditions: 25° C.

B1: HvPPA: Class A type inorganic pyrophosphatase from Haloferax volcanii, amino acid sequence of SEQ ID NO: 2 (protein, listed as Haloferax volcanii)
chain: MVNLWEDMETGPNAPDEIYAVVECLKGERNKYEYDKDIPGVVLDRVLHSNVHYPSDYGFIPQTYYDDEDPFDVLVLVEDQTFPGCVIEARPVALMKMDDDGEQDDKVIAVPVEDPRYDHIEDLDDIPQQTLDEIDEFFATYKNLEAGKEVETLGWEDKQAAKDAIEHAMDLYEENFA
Substrate(s) hydrolyzed [1]: PPi
hydrolysis of nucleoside triphosphate (ATP, TTP, GTP or CTP) or nucleoside diphosphate (ADP) [1]: did not hydrolyze detectable levels
kcat [1]: 1050 s⁻¹
activity of restored EDTA-treated enzyme versus untreated control ([1]; 2.5 mM MgCl2): half the activity of the untreated control
Temp., optimum [1]: 42 °C
Temp., optimum ([1]; listed as HvPPA hexamers): 42 °C
effect of NaCl on relative activity ([1]; 0.025 to 3 M NaCl): little, if any, effect; also recorded: fully active
optimal activity, basic pH ([1]; 3 M NaCl, 10 mM MgCl2, 100 μM PPi, RT): 8-9 pH
activity in organic solvent compared to no solvent controls ([1]; 25% (v/v) DMSO or DMF): 63-94%
activity in organic solvent compared to no solvent controls ([1]; 25% (v/v) methanol or ethanol): 110-150%
pH, optimum ([1]; 25° C.): pH 8.5 (25° C.)
Vmax ([1]; 25° C., PPi substrate): 53 U/mg
Vmax ([1]; 42° C.): 465 U · mg^−1
Vmax ([1]; 42° C., PPi substrate): 465 U/mg
Cation-dependence [1]: partially restored by supplementation of the enzyme with Mn^2+ or Mg^2+ ions
Cation-dependence ([1]; listed as Haloferax volcanii): Mg^2+, Mn^2+
Mg^2+ concentration for optimal PPi hydrolyzing activity ([1]; Mg^2+ added to reaction buffer): 20 to 40 mM
Hill coefficient(s) (Mg^2+) ([1]; Mg^2+, 25° C.): 2.6 (Mg^2+, 25° C.)
Hill coefficient(s) (PPi) ([1]; PPi, 42° C.): 2.1 (PPi, 42° C.)
effect of removal of divalent cations ([1]; dialysis against the metal chelator EDTA): inactivated
Km ([1]; for Mg^2+, 25° C., listed as Haloferax volcanii, read-out: Km Mg^2+): 13.4 mM
Km ([1]; for Mg^2+, 25° C., read-out: Km Mg^2+): 13 mM
Km ([1]; for PPi, 25° C., read-out: Km PPi): 0.26 mM
Km ([1]; for PPi, 42° C., read-out: Km PPi): 0.55 mM
Vmax [2]: 53 U · mg^−1 (25° C.)
Hill coefficient(s) (Mg^2+) ([2]; Mg^2+): 2.62
Hill coefficient(s) (PPi) ([2]; PPi): 1.4 (PPi, 25° C.)
